Measurements from patent US20020142355A1 (BAYLOR COLLEGE OF MEDICINE, published 2002).

B1: adenovirus type 5 fiber protein joined to full length PSTCD (other)
chain: MKRARPSEDTFNPVYPYDTETGPPTVPFLTPPFVSPNGFQESPPGVLSLRLSEPLVTSNGMLALKMGNGLSLDEAGNLTSQNVTTVSPPLKKTKSNINLEISAPLTVTSEALTVAAAAPLMVAGNTLTMQSQAPLTVHDSKLSIATQGPLTVSEGKLALQTSGPLTTTDSSTLTITASPPLTTATGSLGIDLKEPIYTQNGKLGLKYGAPLHVTDDLNTLTVATGPGVTINNTSLQTKVTGALGFDSQGNMQLNVAGGLRIDSQNRRLILDVSYPFDAQNQLNLRLGQGPLFINSAHNLDINYNKGLYLFTASNNSKKLEVNLSTAKGLMFDATAIAINAGDGLEFGSPNAPNTNPLKTKIGHGLEFDSNKAMVPKLGTGLSFDSTGAITVGNKNNDKLTLWTTPAPSPNCRLNAEKDAKLTLVLTKCGSQILATVSVLAVKGSLAPISGTVQSAHLIIRFDENGVLLNNSFLDPEYWNFRNGDLTEGTAYTNAVGFMPNLSAYPKSHGKTAKSNIVSQVYLNGDKTKPVTLTITLNGTQETGDTTPSAYSMSFSWDWSGHNYINEIFATSSYTFSYIAQEKLKVTVNGTAYDVDVDVDKSHENPMGTILFGGGTGGAPAPAAGGAGAGKAGEGEIPAPLAGTVSKILVKEGDTVKAGQTVLVLEAMKMETEINAPTDGKVEKVLVKERDAVQGGQGLIKIG
modifications: biotin on lysine 89 of PSTCD (numbering of FIG. 1)
notes: also called fiber-PSTCD, full length form
B2: adenovirus type 5 fiber protein with the C-terminal 70 amino acid PSTCD domain (biotinylated) (other)
chain: MKRARPSEDTFNPVYPYDTETGPPTVPFLTPPFVSPNGFQESPPGVLSLRLSEPLVTSNGMLALKMGNGLSLDEAGNLTSQNVTTVSPPLKKTKSNINLEISAPLTVTSEALTVAAAAPLMVAGNTLTMQSQAPLTVHDSKLSIATQGPLTVSEGKLALQTSGPLTTTDSSTLTITASPPLTTATGSLGIDLKEPIYTQNGKLGLKYGAPLHVTDDLNTLTVATGPGVTINNTSLQTKVTGALGFDSQGNMQLNVAGGLRIDSQNRRLILDVSYPFDAQNQLNLRLGQGPLFINSAHNLDINYNKGLYLFTASNNSKKLEVNLSTAKGLMFDATAIAINAGDGLEFGSPNAPNTNPLKTKIGHGLEFDSNKAMVPKLGTGLSFDSTGAITVGNKNNDKLTLWTTPAPSPNCRLNAEKDAKLTLVLTKCGSQILATVSVLAVKGSLAPISGTVQSAHLIIRFDENGVLLNNSFLDPEYWNFRNGDLTEGTAYTNAVGFMPNLSAYPKSHGKTAKSNIVSQVYLNGDKTKPVTLTITLNGTQETGDTTPSAYSMSFSWDWSGHNYINEIFATSSYTFSYIAQEEGEIPAPLAGTVSKILVKEGDTVKAGQTVLVLEAMKMETEINAPTDGKVEKVLVKERDAVQGGQGLIKIG
modifications: biotin on lysine 89 of PSTCD (numbering of FIG. 1, full length PSTCD)
notes: also called fiber/PSTCD fusion protein; fiber of the biotinylated adenovirus

Target: the molecule itself
Test: Western blot of transfected cells, self-association (trimer) of the fiber fusion

Protein | binding result
B1 | no binding
B2 | binds
